# Laboratory results as given in patent US20100061996.
# Molecular target: pro-uPA (pro-urokinase-type plasminogen activator, single-chain zymogen form of uPA) (UniProt P00749)
# soluble His-tagged hepsin comprising the entire extracellular domain of human hepsin (Arg45-Leu417), sequence (chain, as listed by the source): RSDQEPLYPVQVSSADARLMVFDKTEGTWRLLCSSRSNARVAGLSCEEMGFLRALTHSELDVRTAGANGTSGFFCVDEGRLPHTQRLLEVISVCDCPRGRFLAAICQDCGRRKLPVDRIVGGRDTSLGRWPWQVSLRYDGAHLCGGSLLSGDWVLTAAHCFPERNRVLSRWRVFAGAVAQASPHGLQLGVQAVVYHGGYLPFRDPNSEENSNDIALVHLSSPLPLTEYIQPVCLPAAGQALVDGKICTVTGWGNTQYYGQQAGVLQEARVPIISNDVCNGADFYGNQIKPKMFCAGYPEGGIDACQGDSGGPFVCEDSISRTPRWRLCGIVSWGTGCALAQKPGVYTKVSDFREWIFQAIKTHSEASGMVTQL
substance,measurement,value
soluble His-tagged hepsin comprising the entire extracellular domain of human hepsin (Arg45-Leu417),"cleavage of pro-uPA (SDS-PAGE, 1.5 uM pro-uPA, 15 nM hepsin)",Incubation of pro-uPA with hepsin resulted in a time-dependent cleavage of the single-chain form into the two-chain form
same,k (first-order rate constant of pro-uPA activation),0.0871 min⁻¹
same,kcat/Km of pro-uPA activation,484000 M⁻¹ s⁻¹
